{"source": "the nanobody polyreactivity screen of Harvey et al. (2022)", "data": [{"experiment": "yeast display, Sf9 membrane polyspecificity reagent, FACS + sequencing; frameworks hold sequencing errors", "outline": "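A synthetic nanobody library was expressed on Saccharomyces cerevisiae BJ5465 by galactose induction for 36–48 hours. The library was stained for 1 hour at 4 °C with 10% biotinylated, detergent-solubilized Sf9 membrane reagent and enriched with streptavidin microbeads before FACS. Low and high (top ~1%) gates were set on anti-HA fluorescence for expression and streptavidin fluorescence for reagent binding, and each polyreactivity label reflects the gate of origin.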", "values": [{"sequence": "QVQLVESGGGLVQAGGSLRLSCAASGSIFGGYAMGWYRQAPGKEGELVAAISWSSSSTYYADSVKGRFTMSRDNAKNTVYLQMNSLKPEDTAVYYCATGIYPQTSDYDYWGQGTQVTVSS", "polyreactivity (PSR sort gate)": "low polyreactivity"}, {"sequence": "QVQHVESGGGLVQAGGSLRLSCAASGSTFYRYTMGWYRQPPGKEREFVATITGRGGSTYADSVKGRFTISRDNAKNTVYLQMNSLKPEDTAVYYCAKRQTYREYDYWGQGTQVTVSS", "polyreactivity (PSR sort gate)": "low polyreactivity"}, {"sequence": "QVQLVESGGGLVQAGGSLRLSCAASGSIFYLYAMGLYRQAPGKERELVAAITSIGGSTYADSVKGRFTISRDNAKNTVYLQMNSLKPEDTAVYYCNTDEYPLTVQVQYYYWGQGTQVTVSS", "polyreactivity (PSR sort gate)": "low polyreactivity"}, {"sequence": "QVQLVESGGGLVQAGGSRRLSCAASGFIFSGYAMGWYRQERGKERELVAAITRSGSRTYYADSVKGRFTISRDNAKNTVYLQMNSLKPEDTAVYYCAKDKPKYGISTIDYWGQGTLVTVSS", "polyreactivity (PSR sort gate)": "high polyreactivity"}, {"sequence": "QVQLVESGGGLVQAGGSLRLSCAASGFIFYRYAMGWYRPAPGKERELVAAISRSGGTTYYADSVKGRFTISRDNAKNTVYLQMNSLKPEETAVYYCAAVGTVSRTVGYKYWGQGTQVTVSS", "polyreactivity (PSR sort gate)": "high polyreactivity"}, {"sequence": "QVQLVESGGGLVQAGGSLRLSCAPSGSTFGYNDMGWYRQAPGKERELVAAIDTGVSTNYADSVKGRFTISRDNAMNTVYLQMNSLKPVDTAVYYLAKSGSAYWHSGWSVGFDYWGQGTQVTVSS", "polyreactivity (PSR sort gate)": "low polyreactivity"}, {"sequence": "QVQLVESGGGLVQAGGSLRLTCAASGSIIWAYAKGWYRQAPGKERELVAAISSGGSTYYADSVKGRFTISRDNAKNIVYLQMNCLKPEDTPVFYCAASWSRRYYYWGQGTQVTVSS", "polyreactivity (PSR sort gate)": "high polyreactivity"}, {"sequence": "QVQLVESGGGLVQAGRSLRLSCAASGFTFAYYAMGWYRQAPGKERELVAAISRGGTSTYYADSVKGRFTISRDNAKNTVYLQMNSLKPEDTAVYYCNAVKVGYSLYDYWGQGTQVTVSS", "polyreactivity (PSR sort gate)": "high polyreactivity"}, {"sequence": "QVHLVDSGGGLVQAGGILRLSCPATGSIFVYNTMGWYRQAPGKERELVADITSGTSTYYADSVKGRFTISRDNAKNTVYLQMNSLKPEDTAVYYSAAERWYKYYAYDYWGQGTQVTVSS", "polyreactivity (PSR sort gate)": "low polyreactivity"}, {"sequence": "QVQLVESGGGLVQAGGSLRFSCAASGLIFRGYVMGWYRQAPGKERELVAAISRRGVNTYYADSVKGRFTISRDNAKNTVYLQMNSLKPEDTAVYYCAAETHVGWPAKFDYWGQGTRVTVSS", "polyreactivity (PSR sort gate)": "high polyreactivity"}, {"sequence": "QVQLVESGGGLVQAGGSLRLSCAASGLILVPNTMGWYRQAPGKESELVAAISDSGGGTYYADSVKGRFTISRDNAKNTVYLQMISLKPEDTAVYYCAAYGKRESAPYGYWGQGTQVTVSS", "polyreactivity (PSR sort gate)": "low polyreactivity"}, {"sequence": "QVQLVESGGGLVQAGGSLRLICAASGSTFSENTMGSYRPAPGKERELVAAISFSGASTYYADSVKGRFTISRDYAKKTVYLQLNSLKPEDTAVYYCRRFTSSPKLALGEYDYWGQGTQVTVSS", "polyreactivity (PSR sort gate)": "low polyreactivity"}, {"sequence": "QVHLVESGGGLVQAGGSLRLSCAASGSIFSVYTRGWYRQAPGKERELVAAISTGGGSTYYADSVKGRFTISRDNAKNTVYLQMNSLKPEDTAVYYCATDYGWAPSYWYDSCGQGTQVTVSS", "polyreactivity (PSR sort gate)": "low polyreactivity"}, {"sequence": "QVQLVESGGGLVQAGGSLRLSCAASGIIFIRYAMGWYRQAPGKERELVAAISWRGGSTYYADSVKGRFTISRDNAKNTVYFQMNSLKPEDTAVYYCAAGYFSYRRYDYWGEGTQVTVSS", "polyreactivity (PSR sort gate)": "high polyreactivity"}, {"sequence": "QVQLVESGGGFVQAGGTLRLSCAASGFTFGYNAMGWYRHAPGKERELVAAISFSDGITYYADSVKRRFTISRDNAKNNVYLQMNSLKPEDTAVYYCAADLYFEYEYWGQGTQVTVSS", "polyreactivity (PSR sort gate)": "high polyreactivity"}, {"sequence": "QVQLVESGGGLVQAGGSLRLSCAASGRTFQYYAMGWYRQAPGKERELVAAITWSGTSTYYADSVKGRFTISRDNAKNTVYLQMNSLKPEDTAVYYCNKYSPYITYDYDYWGQGTQVTVSS", "polyreactivity (PSR sort gate)": "high polyreactivity"}, {"sequence": "QVQLVESGGGLVQAGGSLRLSCAASGRIFYLYAMGWYRQAPGKERELVAGITSGGRTNYADSVKGRFTISRDNAKNTVYLQMNSLKPEDTAVYYCAAYYWGRYTGYYWGQGTQVTVSS", "polyreactivity (PSR sort gate)": "high polyreactivity"}, {"sequence": "QVQLVESGGGLVQAGGSLRLSCAASGSTIVGYAMGWYRQAPGKERELVAAISGSGTSTYYADSVKGRFTISRDNAKNTVYLQMNSLKPEDSAVYYCNADPIFVYSSYNYWGQGTQVTVSS", "polyreactivity (PSR sort gate)": "low polyreactivity"}, {"sequence": "QVQLVESGGGLVQAGGSLRLSCAASGRTFRSYAMGWYRQAPGKERELVAAISDGGSTNYADSVKGRFTISRDNAKNTVYLQMNSLKPEDTAVYYCAAEIFFAVFRFYYWGQGTQVTVSS", "polyreactivity (PSR sort gate)": "low polyreactivity"}, {"sequence": "QVQIVESGGVLVQAGGSLRLSCAASGLTFVQYDMGWYRHAPGKERELVADISGSAGDTYYADSVKGRFTISRDNAKKTVYLQMNSLKPEDTAVYYCNAYGAEYLQYGWRDYWGQGTQLTVSS", "polyreactivity (PSR sort gate)": "low polyreactivity"}, {"sequence": "QVQLVESGGGLVQAGGSLRLSCAASGSIFGLYAMGWYRQAPGKERELVAAINWNGGDTYYADSVKGRFTISRDYAKNTVYLQMNSLKPEDTAVYYCAAEQYRYGIRRRHYDYWGQGTEVTVSS", "polyreactivity (PSR sort gate)": "low polyreactivity"}, {"sequence": "QVQLVESGGGLVQAGGSLRLSCAASGRIFADYAMGWYRQAPGKERELVAAIDWSDGSTKYADSVKGRFTISRDKAKNTVYLQMNSLKPEDTAVNYCAADYWPRDGLGWWYDYWGQGTQVTVSS", "polyreactivity (PSR sort gate)": "low polyreactivity"}, {"sequence": "QVQLVESGGGLVQAGGSHRLSCAASGRTFRYNAMGWYRQAPGKERELVAAISGRGSSTYYADSVKGRFTISRDNAMNTVYLQMNSLKPEETAVYYCAALPASVRRPGWHDYWGQGTQVTVSS", "polyreactivity (PSR sort gate)": "high polyreactivity"}, {"sequence": "QVQLVESGGGLVQAGGSLRLSCAASGSTFTANAMGWYRQAPGKERELVASISARDGSTYADSVKGRFTISRDNAKKTVYLQMNSLKPEDTAVYYCNAAYFHIFPYDYDYWGQGTQVTVSS", "polyreactivity (PSR sort gate)": "low polyreactivity"}, {"sequence": "QVQLVESGGGLVQAGGSLRLSCAASGFTFYYNAMGCYRQAPGKERELVASISSNGTSTYYADSVKGRFTISRDNAKNTVYLQMNSLKPEDTAVYYCNVDIFDPRTYDYWGQGTQVTVSS", "polyreactivity (PSR sort gate)": "low polyreactivity"}, {"sequence": "QVQLVESWGGLVQAGGSLRLSCADSGRTFTVNAMGWYRQAPGKETEFVAAISGRSGRTSYADSVKGRFTISRDNAKNTVYLQMNCLKPEDTAVYYCNASGGYSTGSRYDYWGQGTQVTVSS", "polyreactivity (PSR sort gate)": "high polyreactivity"}, {"sequence": "QVQLVESGGGLVQAGGSLRLSCAASGSNFSYYTMGWYRRATGKERELVAGITWSGGGTSYADSVKGRFTISRDNAKNTVYVQMNSLKPEDTAVYYCAAVDIGRYYRLDYWGQGTQVTVSS", "polyreactivity (PSR sort gate)": "low polyreactivity"}, {"sequence": "QVQLVESGGGLVQAGGSLRLSCAASGYTFTSNAMGWYRQAPGKERELVADISTGVDSTYYADSVKGRFTISRDNAKNTVYLQMNSLKPEDTAVYYCNADILVAWYDEPFDYWGQGTQVTVSS", "polyreactivity (PSR sort gate)": "low polyreactivity"}, {"sequence": "QVQLVESGGGLVQAGGSLRLSCAASGLTFVYYAMGWYRQAPGKEMELVAAITSGGTTHYADSVKGRFTISRDNAKNTVYLQMNSLKPEDTAVYYCAATLGRWKRTYGYWGQGTQVTVSS", "polyreactivity (PSR sort gate)": "high polyreactivity"}, {"sequence": "QVQLVESGGGLGQAGGSLRLSCAASGFTFVYYAMGWYRPAPGKERELVAAISSRGGSTNYADSVKGRFTISRDNAKNTVYLQMNSLKPEDTAVYYCATYFSIQRRGDYWGQGTQVTVSS", "polyreactivity (PSR sort gate)": "high polyreactivity"}, {"sequence": "QVQLLESGGGLVQAGGSLRLSCAHSGLIIWANAMGWYRQAPGKESEMVAAISGSGGRTYYADSVKGRFSISRDNAKNTVYLEMNSLIPEDTAVYFCAAKVSAWKKKSEMNYWGQGTQVTVSS", "polyreactivity (PSR sort gate)": "high polyreactivity"}, {"sequence": "QVQLQESGGGLVQAGGTITLGYDMGWYRQAPGKEREFVAGIDTGAITYYADSVKGRFTNSRDNAKNTVYLQMNSLKPEDTAVYYCAAIQTHTYAHSYWGQGTQVTVSS", "polyreactivity (PSR sort gate)": "high polyreactivity"}, {"sequence": "QVQLVESGGGLVQAGGSLRLSCAASGGTFGRYAMGWYRQAPGKERELFAAITWGGTRTYYADSVKGRFTISRDNAKNTVYLQMNSLKPEDTAGYYCAAYSNYPVFDYNYWGQGTQVTVSS", "polyreactivity (PSR sort gate)": "high polyreactivity"}, {"sequence": "QVQLVESGGGLVQAGGSLRLSCAASGRTFGRYAMGGYRQAPGKERELVAAINSGGSTYYADSVKGRFTISRDNAKNTVYLQMNSLKPEDTAVYYCAADWYYWGFIFDYWGQGTQVTVSS", "polyreactivity (PSR sort gate)": "high polyreactivity"}, {"sequence": "QVQLVESGGGLVQAGGSLRLSCAASGRIFQGNAMGWYRQAPGKERELVAAITTSGGSTYYADSVKGRFTISRDNAKNTVYLQMNSLKPEDTAVYYCNVDPRKRSYDYWGQGTQVTVSS", "polyreactivity (PSR sort gate)": "high polyreactivity"}, {"sequence": "QVQLVESGGGLVQAGGSLRLSCAASGLTFSDYAMGWYRQAPGKEREFVAAITRNGASTRYADSVKGRFTISRDNAKNTVYLQMNRLKPEDTAVYYCSTDVGFGRKQRPHRPGYGYWGQGTQVTVSS", "polyreactivity (PSR sort gate)": "low polyreactivity"}, {"sequence": "QVQLVESGGGLVQAGGSLRLSCAASGSTFDRYDMGWYRQAPGKERELVAAITRRGGSTYYADSVKGRFTISRDNAKNTVYLQMNSLKPEDTAVYYCNAKHFAYSVAHPYLRYGYDYWGQGTQVTVSS", "polyreactivity (PSR sort gate)": "low polyreactivity"}, {"sequence": "QVQLVESGGGLVQAGGSLRLSCAASGSIFRTYVMGWYRQAPGKERELVATIDSTSGSTYYADSVKGRFTISRDNAKNTVYLQMNSLKPEDTAVYYCNVLVYYYYVVKSTYRWYDYWGQGTQVTVSS", "polyreactivity (PSR sort gate)": "high polyreactivity"}, {"sequence": "QVQLVESAGGLVQAGGSLRLSCGASGRIFGWYALGWSRQAPGKERQLVAAITRSGGSTFYADSVKGRFTISRDNAKNTVYLQMHSLKPDDTAVYYCNARYFNGRHKHYYWGQGTQVTVSS", "polyreactivity (PSR sort gate)": "high polyreactivity"}, {"sequence": "QVQLVESGGGLVQAGGSLRLSSPASGSIYRKYGMGSYRQAPGKERELVATITSSGGSTYYADSVKGRFSISRDNAKKTVYLQMNSLKPEDTAVYYCAADYYYLPGSYQVRAMYYWGQGTQVTVSS", "polyreactivity (PSR sort gate)": "high polyreactivity"}, {"sequence": "QVQLVESGGGLVQAGGSLRLTCAASGFTFGEYAMGWYRQAPGKERELVAVITSGGGRTYYADSVKGRFTISRDNAKNNVYLEMNSLNPEDTAAYYCAAQPKPQLERKDDYWGQGTQVTVSS", "polyreactivity (PSR sort gate)": "high polyreactivity"}, {"sequence": "QVQLVESGGGLVQAGGSLRLSCAASGSIFFDYALGWYRQAPGKERELVARITSSDSTNYADSVKGRFTISRDNAKNTVYLQMNSLKPEDTAVYYCNKDSTGDGYDYWGQGTQVTVSS", "polyreactivity (PSR sort gate)": "low polyreactivity"}, {"sequence": "QVQLVESGGGLVQAGGSLRLRCAASGSTFNRYAMGWYRQAPWKERELVAAINWRGGRTYYADSVKGRFTISRDNAKNTVYLQMNSLKPEDTAVYYCNADVTSLTRVHGRFIVSDDDYWGQGTQVTVSS", "polyreactivity (PSR sort gate)": "low polyreactivity"}]}]}
